The source of these data is patent publication US20090117107A1.

Where only a bound is given, the exact number is not on record here.

In this assay the target is rRANKL (Cambrex) (UniProt O14788). In words: cell-based or functional assay.
Chain of UniProt O14788 (O14788 140-317 limits assumed): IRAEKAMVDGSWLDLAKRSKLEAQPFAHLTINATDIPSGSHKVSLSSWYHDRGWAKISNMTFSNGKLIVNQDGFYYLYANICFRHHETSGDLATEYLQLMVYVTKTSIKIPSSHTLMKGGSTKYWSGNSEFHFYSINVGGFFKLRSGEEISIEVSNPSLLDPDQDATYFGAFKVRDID

With “Recombinant OPG (R&D cat185-05-025) (from UniProt O00300 22-401) (receptor)”, the rRANKL-induced OC differentiation in OCP-RASF coculture, αvβ3 integrin cELISA luminescent readout (ng/mL rRANKL inhibited by 22 ng/mL rOPG) was under 7.5 and the rRANKL-induced OC differentiation in OCP-RASF coculture, αvβ3 integrin cELISA luminescent readout (ng/mL rRANKL inhibited by 66 ng/mL rOPG) is under 15.
